One block for each molecule: values may come before it.
Experiments:
streptavidin = streptavidin (UniProt P22629); experiment: native MS; native CZE online with ESI and a Q-Exactive UHMR Orbitrap; mixture of standard proteins and protein complexes; background electrolyte 25 mM ammonium acetate pH~7.0, sheath buffer 10 mM ammonium acetate pH~7.0; original sample (about 15 ng consumed) and a 50-fold dilution (0.1 ng CRP loaded)
[1] = target: T1, C-reactive protein, P02741; experiment: as above; conditions: remark: other sources report otherwise
T1 chain: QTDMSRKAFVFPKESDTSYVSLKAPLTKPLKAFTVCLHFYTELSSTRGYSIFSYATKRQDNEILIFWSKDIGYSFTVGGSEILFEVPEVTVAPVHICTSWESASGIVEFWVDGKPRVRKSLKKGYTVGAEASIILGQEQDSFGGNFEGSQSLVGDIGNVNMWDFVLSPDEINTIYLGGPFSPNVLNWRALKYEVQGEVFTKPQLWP

- stoichiometry N (streptavidin): 4
Molecule: streptavidin (from UniProt P22629 25-183) (natural protein)

- stoichiometry N [1]: 5
B1: C-reactive protein, P02741 19-224 (natural protein)
chain: T1 chain

Source: paper PMC11646347
